Laboratory results from article PMC6128652, “Structure of the Cladosporium fulvum Avr4 effector in complex with (GlcNAc)6 reveals the ligand-binding mechanism and uncouples its intrinsic function from recognition by the Cf-4 resistance protein” (PLoS Pathogens, 2018).
Entries after “also recorded” stand apart in the source; their conditions may differ.

How the values were obtained:
[1] = system: subtilisin; experiment: Subtilisin treatment (resistance against proteolytic degradation); format: in vitro ADME; design: key to Stability (Subtilisin assay): S: stable; PU: partially unstable; conditions: 500 ng/μL subtilisin, 30 min, room temperature
Description: The WT-CfAvr4 and selected mutants thereof were exposed to the non-specific protease subtilisin in order to determine their resistance against proteolytic degradation. Treatments with subtilisin were made as previously described with minor modifications. Briefly, 40 μM of the E. coli-produced CfAvr4 and the selected CfAvr4 mutants were mixed with 10 mM of calcium chloride and 500 ng/μL of subtilisin (Sigma-Aldrich) in a total volume of 15 μL. Samples were incubated for 30 min at room temperature, after which period they were denatured by mixing with 10 mM PMSF and SDS-PAGE loading buffer, and heating at 98°C for 10 min. Digestion products were visualized on an SDS-PAGE after staining with Coomassie blue.

[2] = Isothermal titration calorimetry (ITC) of CfAvr4 variants with chitin hexasaccharide; format: binding; conditions: compared with PfAvr4
Description: A stock solution of the monomer of N-acetylglucosamine was prepared by dissolving the dry powder in a buffer containing 10 mM Bis-Tris, pH 6.5, 100 mM NaCl to a concentration of 0.100 g/L using analytic techniques. Standard solution of 0, 0.010, 0.025, 0.050, 0.075 g/L were prepared by serial dilutions. Using glass test tubes and pipets, 100 μL of each standard was mixed with 300μL of concentrated sulfuric acid and vortexed for 10 sec to mix. Solutions were incubated at RT for 10 min and then placed on ice to stop the reaction. […] Analytically prepared solution of the di- and tri-saccharide scaled linearly to the calibration curve. To determine the concentration of the chitin hexasaccharide solutions used in ITC, the solutions were diluted into the dynamic range of the calibration curve (S12 Fig) and subjected to the above procedure.
All ITC experiments were performed on a TA Instruments low volume NanoITC with a 186uL reaction cell and a reference cell filled with degassed Milli-Q grade water. Reactions were run in a buffer containing 10mM Bis-Tris, pH 6.5, 100 mM NaCl. The reservoir solution was filled with protein solution and continuously stirred while Chitin hexasaccharide solutions titrated in 2.5μL aliquots for 19 injections, with an initial 1μL injection, for a total injection volume of 48.5μL. The carbohydrate solutions were made by dissolving the dry powder in buffer to a concentration of 20mM (confirmed using methods described above) and then diluted to the working concentration using the final buffer exchange flow through to match the buffers as closely as possible. The integrated heats, after correction for the heat of dilution were analyzed using the NanoAnalyze software from […]. An individual binding site model was used to fit the binding isotherm. All experiments were replicated a minimum of three times.

[3] = system: Cf-4 immune receptor; experiment: Pure protein infiltrations into tomato leaves of cv Purdue 135 (+ Cf-4), hypersensitive response; format: in vivo; conditions: both 5 μg/ml and 10 μg/ml, 5 dpi
Description: Tomato seeds were obtained from the Tomato Genetic Resource Center (TGRC) at UC Davis. WT-CfAvr4 and mutants thereof with single point mutations at selected amino acids were produced and purified from E. coli Rosetta-gami B cells as description above. […]

[4] = system: tomato leaves of cv Moneymaker (–Cf-4); experiment: Pure protein infiltrations into tomato leaves of cv Moneymaker (–Cf-4), hypersensitive response; format: in vivo
Description: Tomato seeds were obtained from the Tomato Genetic Resource Center (TGRC) at UC Davis. WT-CfAvr4 and mutants thereof with single point mutations at selected amino acids were produced and purified from E. coli Rosetta-gami B cells as description above. Proteins were infiltrated at a concentration of 5 μg/mL and 10 μg/mL into the back side of MM or Purdue 135 tomato leaves using a one mL syringe and the HR response was recorded at 6 days post-infiltrations.

[5] = system: germlings of Trichoderma viride; experiment: In vitro protection assay of T. viride germlings against chitinases; format: cell-based; conditions: 5 μM protein with chitinases and β-1,3-glucanases
Description: The ability of the WT-CfAvr4 and of ChBD mutants to protect against chitinases was evaluated in in vitro protection assays conducted as described before. Briefly, spores of T. viride (3∙10^3) were pre-germinated overnight at room temperature in 100 μl of half-strength PDB medium in 96 well plates. The following day, 5 μM of WT-CfAvr4 or ChBD mutants were mixed with 7.5 units of Zymolyase (Zymo Research cat. no. E1004) and 0.2 units of bacterial chitinases (Sigma-Aldrich cat. no. C6137) and the mixture was added to the microtitre plate wells containing the pre-germinated spores in a final volume of 150 μl. Plates were incubated at 25°C for 6–8 h before evaluating under the microscope fungal growth and the ability of the proteins to provide protection against chitinases. Zymolase has β-1,3 glucanase and β-1,3-glucan laminaripentaohydrolase activity and is added to the mixture in order to remove the surface glucans from the fungal cell wall and thus expose the underlying chitin layer.

[6] = system: Cf-4; experiment: Agrobacterium tumefaciens transient transformation assay (ATTA): co-expression with Cf-4 in Nicotiana benthamiana leaves; format: in vivo; conditions: N. benthamiana, three cell density ratios 0.5:1, 1:1, 2:1
Description: The Agrobacterium tumefaciens transient transformation assay (ATTA) was used for the transient co-expression into leaves of Nicotiana benthamiana of Cf-4 with the WT-CfAvr4 and the mutants thereof tested in this study. Briefly, N. benthamiana plants were grown in a growth chamber with 16 h of artificial light and 70% humidity, at 25°C for 4 weeks. The true mature form of the WT-CfAvr4 (i.e. between Lys30-Gln115) and of the mutants thereof were singly cloned into the binary expression vector pICH47742 downstream of the PR1A signal sequence of Nicotiana tabacum for targeted secretion into the apoplast, and under the control of CaMV 35S promoter and NOS terminator. The tomato Cf-4 was cloned into pMOG800 as descripted before. Binary vector plasmids were transformed into A. tumefaciens strain GV3101 by electroporation. For the ATTA assay, agrobacteria transformed with pMOG800:Cf-4 was grown in 10mL LB-mannitol medium (LB medium with 10 g/L mannitol) amended with 50 μg/mL kanamycin and 25 μg/mL rifampicin, whereas agrobacteria transformed with pICH47742:WT-CfAvr4 or pICH4774:CfAvr4-mutants were grown in LB-mannitol amended with 100 μg/mL carbenicillin and 25 μg/mL rifampicin. All cultures were incubated at 28°C for 2 days, after which period they were pelleted at 2800g for 15 min, re-suspended in MMAi medium (5 g/L Murashige and Skoog basal salts, 20 g/L sucrose, 10 mM MES, and […]) at an optical cell density (A600) of 2.0, and further incubated for 2–4 h at room temperature. Agroinfiltrations were performed by mixing agrobacteria containing pMOG800:Cf-4 with agrobacteria containing pICH47742_WT-CfAvr4 or pICH47742:CfAvr4-mutants at three different ratios of optical cell densities, i.e. A6000.5:A6001.0, A6000.5:A6000.5, and A6000.5:A6000.25 of. The mixture of agrobacteria was infiltrated into the leaves of N. benthamiana plants using a 1 mL syringe and the induction of an HR in the infiltrated leaf sectors was evaluated at 5 days post-infiltrations. Control infiltrations were made using only the pMOG800:Cf-4 transformed agrobacteria and the agrobacteria containing pICH47742:CfAvr4 or the mutants thereof without mixing the two cultures, at cell densities of A6000.25, A6000.5, and A6001.0.

B1: WT-CfAvr4: wild-type Avr4 effector protein of Cladosporium fulvum, CBM14 chitin-binding lectin, E. coli-produced mature form Lys30-Gln115 (protein)
chain: KAPKTQPYNPCKPQEVIDTKCMGPKDCLYPNPDSCTTYIQCVPLDEVGNAKPVVKPCPKGLQWNDNVGKKWCDYPNLSTCPVKTPQ
modifications: left off: 6x His (two), N-terminal, cleaved
Which results are given for B1?
Stability (Subtilisin assay) [1]: S; higher binding affinity for (GlcNAc)6 than PfAvr4 [2]: 10 fold; Cf-4-mediated HR after protein infiltration [3]: strong and equal in intensity HR; also recorded: strong hypersensitive response (HR); also recorded: strong and equally in intensity necrosis; HR after protein infiltration [4]: none of the mutants or the WT-CfAvr4 induced an HR; also recorded: None of the proteins, WT-CfAvr4 or mutants, elicited an HR; morphology of hyphae after chitinase treatment [5]: remained morphologically intact; protection of fungal hyphae against chitinases, fungal growth ([5]; 6–8 h): enabled fungal growth and survival; also recorded: able to protect hyphae; HR on transient co-expression with Cf-4 [6]: strong and similar in intensity HR
